# Laboratory results as given in patent publication US20090068174A1, “THERAPEUTIC ALKALINE PROTEASE COMPOSITIONS AND USE IN FACILITATING THE TRANSPORT OF AGENTS ACROSS THE GASTROINTESTINAL MUCOSAL LINING” (Kansas University Medical Center Research Institute, Inc., priority 2007, published 2009).
# Molecular target: T1, mouse recombinant TNF-α (Mus musculus, UniProt P06804)
# T1 sequence (P06804 80-235 limits assumed): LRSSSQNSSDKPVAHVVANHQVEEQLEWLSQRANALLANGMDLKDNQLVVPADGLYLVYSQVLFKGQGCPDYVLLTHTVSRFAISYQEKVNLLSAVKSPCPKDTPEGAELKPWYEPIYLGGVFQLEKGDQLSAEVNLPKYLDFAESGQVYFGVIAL
# Assay: Bioactivity of protease-treated mouse TNF-α in the C2C12 cell bioassay (nitrite)
# Assay type: cell-based
# Conditions: C2C12 cells, NO (nitrite) production
# Description: Effects of three purified A. oryzae proteases on the bioactivity of mouse TNF-α (A) protease powder prepared according to Example 1 (preparation); (B) alkaline protease; (C) 26 kDa protease; and (D) deuterolysin. 50 ng quantities of TNF-α were incubated at 37° C. for 24 hours with the indicated quantities of the protease powder prepared according to Example 1 or one of the three purified proteases. The reactions were then stopped by addition of FBS and samples were added to C2C12 cells that had been costimulated with mouse IFN-γ. Twenty-four hours later, nitrite was measured in culture fluids.
# The protease powder prepared according to Example 1 inactivates mouse recombinant TNF-α. 50 ng of the cytokine was treated for 24 hours with either 0 (□); 5 (∘); or 10 ng ([…]) of either Pseudomonas elastase (A) or protease powder prepared according to Example 1 (B). Then the residual bioactivity of the cytokine was measured by its ability to co-activate mouse C2C12 myoblast cells in the presence of excess IFN-γ for the production of NO (nitrite).
# The protease powder prepared according to Example 1 inactivates mouse recombinant TNF-α by limited proteolysis. […]
substance,measurement,value
Pseudomonas elastase: Pseudomonas protease used as a positive control [reference compound],Effect on bioactivity of mouse TNF-α,led to a loss of its biological activity
